Experimental data as given in patent US20120276102A1 (Pfizer, published 2012).

Columns and labels:
[1] = molecular target: T1, human complement component C1q (human, UniProt P02745 23-245; P02746 28-253; P02747 29-245); test: C1q ELISA, antibody coated at 5 µg/ml, human serum 1:50
T1 construct: Native C1q in diluted human serum
Experimental: In order to determine whether cell-surface binding by anti-IL-21R antibodies is likely to lead to complement-dependent cytotoxicity (CDC), the antibodies were tested for their ability to bind to the complement component C1q in an ELISA. […] Diluted antibodies (100 μl) were coated onto a COSTAR® high-binding ELISA plate (Corning Life Sciences, Lowell, Mass.) overnight at 4° C. Plates were washed 3× with PBS/Tween-20 and blocked with 200 μl of blocking buffer (0.1 M NaPO₄, 0.1 M NaCl, 0.1% gelatin, 0.01% Tween) for 1 hr at RT. Human serum previously determined to contain C1q (Quidel, San Diego, Calif.) was diluted 1:50 in PBS. After 1 hr of blocking, plates were washed and 100 μl of diluted serum was added to each well and incubated for 2 hr at RT on a shaker. Following three washes, 100 μl A of 0.1 μg/ml chicken polyclonal anti-human C1q antibody (AbCam, Cambridge, Mass.) was added to each well and incubated for 1 hr at RT. Plates were again washed and incubated with 100 μA of a rabbit polyclonal antibody to chicken Ig-Y—HRP diluted 1:4000 (AbCam) for 1 hr at RT. Plates were washed and developed with TMB for 5 min, followed by 50 μA of 1 M H₂SO₄ to stop the reaction, and then read at 450 nm.

[2] = molecular target: T2, murine IL-21R extracellular domain His-Flag fusion protein (murine, UniProt Q9JHX3 20-237); test: competition ELISA: scFv mixed with biotinylated murine IL-21R-H/F, added to plate-bound 18A5 IgG (competitor); captured receptor detected with HRP-streptavidin, A450
T2 construct: Biotinylated in the ELISAs; also called mIL-21R-H/F; murine IL-21R-H/F
Experimental: Blocked plates were washed 3× with PBS, and 50 μl/well of scFv/IL-21R mixtures were transferred to the appropriate plates and incubated for 1 hr at RT. Plates were washed 5× with PBS prior to the addition of a 1:6000 dilution of horseradish peroxidase-conjugated streptavidin (Southern Biotech, Birmingham, Ala.) secondary antibody to detect bound biotinylated mIL-21R-H/F. Plates were then incubated for 1 hr at RT and washed 7× with PBS. Signal was developed using 3,3′,5,5′-tetramethylbenzidine (TMB), the reaction stopped with H₂SO₄, and the absorbance read at 450 nm on an ENVISION™ plate reader (Perkin Elmer).

[3] = molecular target: rat IL-21R expressed on cells (rat); test: cell-based or functional assay
murine IL-21 = murine IL-21 (murine, UniProt Q9ES17 18-146); test: cell-based or functional assay

T1 sequence (P02745 23-245, chain 1 of 3): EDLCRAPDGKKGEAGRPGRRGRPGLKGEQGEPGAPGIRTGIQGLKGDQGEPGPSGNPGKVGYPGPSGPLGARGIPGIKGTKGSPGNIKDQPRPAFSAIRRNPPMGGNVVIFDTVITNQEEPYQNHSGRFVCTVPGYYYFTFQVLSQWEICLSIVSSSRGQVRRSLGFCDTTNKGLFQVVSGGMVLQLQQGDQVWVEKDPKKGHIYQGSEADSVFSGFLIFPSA
T1 sequence (P02746 28-253, chain 2 of 3): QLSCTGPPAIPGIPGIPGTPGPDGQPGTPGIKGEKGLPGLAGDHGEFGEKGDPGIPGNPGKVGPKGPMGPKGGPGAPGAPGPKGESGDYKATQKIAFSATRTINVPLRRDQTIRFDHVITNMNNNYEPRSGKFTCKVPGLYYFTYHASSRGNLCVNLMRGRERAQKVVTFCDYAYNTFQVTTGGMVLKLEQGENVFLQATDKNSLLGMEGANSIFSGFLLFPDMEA
T1 sequence (P02747 29-245, chain 3 of 3): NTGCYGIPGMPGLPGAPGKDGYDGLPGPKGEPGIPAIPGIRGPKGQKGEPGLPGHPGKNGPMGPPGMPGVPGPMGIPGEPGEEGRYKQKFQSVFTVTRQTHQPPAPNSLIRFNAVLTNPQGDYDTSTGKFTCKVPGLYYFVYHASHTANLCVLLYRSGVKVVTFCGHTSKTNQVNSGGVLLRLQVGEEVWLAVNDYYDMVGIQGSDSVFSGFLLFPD

B1: AbX (antibody, human IgG1)
VH: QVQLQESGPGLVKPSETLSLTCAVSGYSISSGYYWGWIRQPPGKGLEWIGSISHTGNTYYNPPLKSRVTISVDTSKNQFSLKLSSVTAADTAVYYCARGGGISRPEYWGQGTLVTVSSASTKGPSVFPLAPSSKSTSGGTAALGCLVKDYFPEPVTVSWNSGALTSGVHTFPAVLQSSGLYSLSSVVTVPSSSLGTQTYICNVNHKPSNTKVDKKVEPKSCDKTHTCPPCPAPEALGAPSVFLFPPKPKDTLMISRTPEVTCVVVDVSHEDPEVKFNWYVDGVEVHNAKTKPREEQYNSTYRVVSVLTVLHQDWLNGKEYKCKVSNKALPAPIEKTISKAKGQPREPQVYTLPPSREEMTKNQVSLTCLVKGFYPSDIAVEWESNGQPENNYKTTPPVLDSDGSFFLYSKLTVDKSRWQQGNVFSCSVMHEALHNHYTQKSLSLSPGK
VL: SSELTQDPAVSVALGQTVRITCQGDSLRTYYASWYQQKPGQAPVLVIYGKHKRPSGIPDRFSGSSSGNTASLTITGAQAEDEADYYCVARSNKGNPHVLFGGGTQLTVLGQPKAAPSVTLFPPSSEELQANKATLVCLISDFYPGAVTVAWKADSSPVKAGVETTTPSKQSNNKYAASSYLSLTPEQWKSHRSYSCQVTHEGSTVEKTVAPTECS
notes: Same variable domains as AbT; residue limits derived as for m29; also called VHPDM/VL9; copies: 2 + 2
B1: no binding [1].

B2: 18A5 parent scFv (scFv)
scFv: QVQLQESGPGLVKTSETLSLTCAVSGYSISSGYYWGWIRQPPGKGLEWIGSISHTGNTYYNPPLKSRVTISVDTSKNQFSLKLSSVTAADTAVYYCARGGGISRPEYWGKGTLVTVSSGGGGSGGGGSGGGGSALSSELTQDPPVSVALGQTVTLTCQGDSLRTYYASWYQQKSGQAPILLLYGKHKRPSGIPDRFSGSTSGDTASLTITGAQAEDEADYYCNSRDSSGNPHVLFGGGTQLTVL
notes: scFv format of parental 18A5 (not germlined); different molecule from the 18A5 IgG coated on the plate; also called parental 18A5 scFv; scFv parental clone 18A5
B2: binds [2].

B3: AbW (antibody, human IgG1, V domains shown)
VH: QVQLQESGPGLVKPSETLSLTCAVSGYSISSGYYWGWIRQPPGKGLEWIGSISHTGNTYYNPPLKSRVTISVDTSKNQFSLKLSSVTAADTAVYYCARFMGFGRPEYWGQGTLVTVSS
VL: SSELTQDPAVSVALGQTVRITCQGDSLRTYYASWYQQKPGQAPVLVIYGKHKRPSGIPDRFSGSSSGNTASLTITGAQAEDEADYYCVTRSVKGNPHVLFGGGTQLTVL
For B3, the “IC50, rat T cell proliferation, experiment 1” value [3] was 159 nM and the “IC50, rat T cell proliferation, experiment 2” value [3] was 94.7 nM.

B4: murine IL-21R-Fc (Fc fusion, not shown: a dimerising Fc or GST)
chain: not shown
B4 was tested, and the “Murine IL-21R-BaF3 Neutralization IC50” value (murine IL-21) was 0.04 nM.
